Test results: paper PMC9859756, “OASL phase condensation induces amyloid-like fibrillation of RIPK3 to promote virus-induced necroptosis” (Nature Cell Biology, 2023)

T1: eGFP C-terminal fused full-length human OASL (human, UniProt Q15646 1-514)
T1 construct: also called OASL–GFP; GFP-tagged full-length OASL; source: E. coli BL21 DE3 (pLys), purified (glutathione sepharose 4B, GST removed with PreScission protease); not shown: eGFP, C-terminal, kept
T1 sequence (looked up): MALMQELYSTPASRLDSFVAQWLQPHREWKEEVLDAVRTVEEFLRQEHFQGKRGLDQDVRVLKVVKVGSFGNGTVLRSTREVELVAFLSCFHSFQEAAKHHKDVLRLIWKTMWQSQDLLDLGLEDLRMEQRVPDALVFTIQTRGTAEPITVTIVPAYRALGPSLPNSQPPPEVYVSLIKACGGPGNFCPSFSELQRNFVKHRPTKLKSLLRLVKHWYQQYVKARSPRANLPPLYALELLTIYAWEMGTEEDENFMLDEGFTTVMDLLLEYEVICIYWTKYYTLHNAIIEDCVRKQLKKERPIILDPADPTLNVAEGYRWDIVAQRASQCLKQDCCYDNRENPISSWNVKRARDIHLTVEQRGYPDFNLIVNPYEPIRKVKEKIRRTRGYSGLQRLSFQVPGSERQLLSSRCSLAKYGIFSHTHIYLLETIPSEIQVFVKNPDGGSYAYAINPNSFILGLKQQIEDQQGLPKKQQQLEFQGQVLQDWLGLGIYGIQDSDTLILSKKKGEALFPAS

B1: mCherry C-terminal fused C-terminal unstructured region of human RIPK3 (RIPK3 295–518) (domain or fragment, UniProt Q9Y572 295-518, looked up)
chain: NAAVSTVKDFLSQLRSSNRRFSIPESGQGGTEMDGFRRTIENQHSRNDVMVSEWLNKLNLEEPPSSVPKKCPSLTKRSRAQEEQVPQAWTAGTSSDSMAQPPQTPETSTFRNQMPSPTSTGTPSPGPRGNQGAERQGMNWSCRTPEPNPVTGRPLVNIYNCSGVQVGDNNYLTMQQTTALPTWGLAPSGKGRGLQHPPPVGSQEGPKDPEAWSRPQGWYNHSGK
notes: also called RIPK3_(295–518)–mCherry; C-terminal RIPK3_(295–518); source: E. coli BL21 DE3 (pLys), purified (glutathione sepharose 4B, GST removed with PreScission protease); not shown: mCherry, C-terminal, kept
B2: BFP C-terminal fused full-length human ZBP1 (natural protein, UniProt Q9H171 1-429, looked up)
chain: MAQAPADPGREGHLEQRILQVLTEAGSPVKLAQLVKECQAPKRELNQVLYRMKKELKVSLTSPATWCLGGTDPEGEGPAELALSSPAERPQQHAATIPETPGPQFSQQREEDIYRFLKDNGPQRALVIAQALGMRTAKDVNRDLYRMKSRHLLDMDEQSKAWTIYRPEDSGRRAKSASIIYQHNPINMICQNGPNSWISIANSEAIQIGHGNIITRQTVSREDGSAGPRHLPSMAPGDSSTWGTLVDPWGPQDIHMEQSILRRVQLGHSNEMRLHGVPSEGPAHIPPGSPPVSATAAGPEASFEARIPSPGTHPEGEAAQRIHMKSCFLEDATIGNSNKMSISPGVAGPGGVAGSGEGEPGEDAGRRPADTQSRSHFPRDIGQPITPSHSKLTPKLETMTLGNRSHKAAEGSHYVDEASHEGSWWGGGI
notes: also called ZBP1–BFP; not shown: BFP, C-terminal, kept
B3: purified untagged full-length OASL (natural protein, human, UniProt Q15646 1-514, looked up)
chain: T1 sequence (looked up)
notes: also called purified human OASL protein; source: purified

How the values were obtained:
[1] = target: T1, eGFP C-terminal fused full-length human …; assay: in vitro recruitment into phase-separated droplets (fluorescence microscopy); conditions: both partners purified
[2] = target: T2, mCherry C-terminal fused full-length human RIPK3 (human, UniProt Q9Y572 1-518); assay: as above; conditions: both partners purified
T2 construct: also called RIPK3–mCherry; mCherry-tagged full-length RIPK3; source: E. coli BL21 DE3 (pLys), purified (glutathione sepharose 4B, GST removed with PreScission protease); not shown: mCherry, C-terminal, kept

| Binder | binding result [1] | binding result [2] |
| --- | --- | --- |
| B1 | binds |  |
| B2 | binds |  |
| B3 |  | binds |
